Measurements published in the supplement of paper PMC7877785.
± gives the uncertainty stated by the source.

Assay: self-splicing fitness, log relative to wild type (ln ratio); higher = more splicing; Tetrahymena group I intron in knt gene, E. coli kanamycin selection, DiMSum; sequences stand for … in CUCUCU…GGAGGGAAAAGUUAUCAGGCAUGCACCUGGUAGCUAGUCUUUAAACCAAUAGAUUGCAUCGGUUUAAAAGGCAAGACCGUCAAAUUGCGGGAAAGGGGUCAACAGCCGUUCAGUACCAAGUCUCAGGGGAAACUUUGAGAUGGCCUUGCAAAGGGUAUGGUAAUAAGCUGACGGACAUGGUCCUAACCACGCAGCCAAGUCCUAAGUCAACAGAUCUUCUGUUGAUAUGGAUGCAGUUCACAGACUAAAUGUCGGUCGGGGAAGAUGUAUUCUUCUCAUAAGAUAUAGUCGGACCUCUCCUUAAUGGGAGCUAGCGGAUGAAGUGAUGCAACACUGGAGCCGCUGGGAACUAAUUUGUAUGCGAAAGUAUAUUGAUUAGUUUUGGAGUACUCGUGGUCG
Summary of the method: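 Library with all eight P1ex-region intron nucleotides randomised, intron inside the knt kanamycin-resistance gene on pET-22b(+), in E. coli BL21(DE3). Cells grew overnight at 37°C or 30°C on LB agar with or without 25 μg/mL kanamycin (plus 100 μg/mL carbenicillin, 50 μM IPTG, 0.2% rhamnose), in six replicate transformations. Pooled colonies were amplicon-sequenced on Illumina HiSeq 2500. DiMSum fitness is the error-weighted combination of wild-type-normalised replicate fold changes, kanamycin versus none.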

Sequence: GCGUAGCAAUAUUACGACAC
- self-splicing fitness (ln) (30 °C): -0.714 ± 0.092
- self-splicing fitness (ln) (37 °C): -0.0138 ± 0.097

Sequence: GCGUAGCAAUAUUACGACGA
- self-splicing fitness (ln) (30 °C): -0.712 ± 0.15
- self-splicing fitness (ln) (37 °C): -0.0139 ± 0.19

Sequence: GCGUAGCAAUAUUACGACGG
- self-splicing fitness (ln) (30 °C): -3.73 ± 0.48
- self-splicing fitness (ln) (37 °C): -2.79 ± 0.43

Sequence: GCGUAGCAAUAUUACGAGCA
- self-splicing fitness (ln) (30 °C): -1.28 ± 0.082
- self-splicing fitness (ln) (37 °C): -0.574 ± 0.094

Sequence: GCGUAGCAAUAUUACGAGCG
- self-splicing fitness (ln) (30 °C): -0.887 ± 0.15
- self-splicing fitness (ln) (37 °C): -1.62 ± 0.17

Sequence: GCGUAGCAAUAUUACGAGGC
- self-splicing fitness (ln) (37 °C): -1.53 ± 0.39

Sequence: GCGUAGCAAUAUUACGAGUC
- self-splicing fitness (ln) (30 °C): -2.81 ± 0.22
- self-splicing fitness (ln) (37 °C): -2.17 ± 0.23

Sequence: GCGUAGCAAUAUUACGAUCG
- self-splicing fitness (ln) (30 °C): -1.34 ± 0.12
- self-splicing fitness (ln) (37 °C): -0.204 ± 0.13

Sequence: GCGUAGCAAUAUUACGAUGC
- self-splicing fitness (ln) (30 °C): -3.71 ± 0.32
- self-splicing fitness (ln) (37 °C): -1.39 ± 0.27

Sequence: GCGUAGCAAUAUUACGCCGU
- self-splicing fitness (ln) (30 °C): -2.86 ± 0.26
- self-splicing fitness (ln) (37 °C): -3.17 ± 0.26

Sequence: GCGUAGCAAUAUUACGCGGG
- self-splicing fitness (ln) (30 °C): -3.78 ± 0.24
- self-splicing fitness (ln) (37 °C): -2.75 ± 0.3

Sequence: GCGUAGCAAUAUUACGCGUG
- self-splicing fitness (ln) (30 °C): -4.06 ± 0.28
- self-splicing fitness (ln) (37 °C): -2.71 ± 0.15

Sequence: GCGUAGCAAUAUUACGGACG
- self-splicing fitness (ln) (30 °C): -3.14 ± 0.21
- self-splicing fitness (ln) (37 °C): -2.1 ± 0.22

Sequence: GCGUAGCAAUAUUACGGCAG
- self-splicing fitness (ln) (30 °C): -3.83 ± 0.28
- self-splicing fitness (ln) (37 °C): -2.13 ± 0.39

Sequence: GCGUAGCAAUAUUACGGCGG
- self-splicing fitness (ln) (30 °C): -2.79 ± 0.19
- self-splicing fitness (ln) (37 °C): -1.36 ± 0.23

Sequence: GCGUAGCAAUAUUACGGGGA
- self-splicing fitness (ln) (30 °C): -2.23 ± 0.32
- self-splicing fitness (ln) (37 °C): -2.89 ± 0.35

Sequence: GCGUAGCAAUAUUACGGUGA
- self-splicing fitness (ln) (30 °C): -1.73 ± 0.12
- self-splicing fitness (ln) (37 °C): -0.187 ± 0.12

Sequence: GCGUAGCAAUAUUACGGUUU
- self-splicing fitness (ln) (30 °C): -1.03 ± 0.1
- self-splicing fitness (ln) (37 °C): -0.436 ± 0.13

Sequence: GCGUAGCAAUAUUACGUAUA
- self-splicing fitness (ln) (30 °C): -2.15 ± 0.26
- self-splicing fitness (ln) (37 °C): -1.52 ± 0.21

Sequence: GCGUAGCAAUAUUACGUUAU
- self-splicing fitness (ln) (30 °C): -3.72 ± 0.35
- self-splicing fitness (ln) (37 °C): -1.89 ± 0.18

Sequence: GCGUAGCAAUAUUACGUUGG
- self-splicing fitness (ln) (30 °C): -2.62 ± 0.24
- self-splicing fitness (ln) (37 °C): -2.96 ± 0.32

Sequence: GCUAAGCAAUAUUACGACGG
- self-splicing fitness (ln) (30 °C): -1.8 ± 0.11
- self-splicing fitness (ln) (37 °C): -1.49 ± 0.14

Sequence: GCUAAGCAAUAUUACGACUC
- self-splicing fitness (ln) (30 °C): 0.21 ± 0.098
- self-splicing fitness (ln) (37 °C): 0.379 ± 0.14

Sequence: GCUAAGCAAUAUUACGAGCA
- self-splicing fitness (ln) (30 °C): -1.72 ± 0.14
- self-splicing fitness (ln) (37 °C): -1.03 ± 0.13

Sequence: GCUAAGCAAUAUUACGAUGG
- self-splicing fitness (ln) (30 °C): -0.808 ± 0.072
- self-splicing fitness (ln) (37 °C): -0.4 ± 0.098

Sequence: GCUAAGCAAUAUUACGCAAG
- self-splicing fitness (ln) (37 °C): -1.46 ± 0.28

Sequence: GCUAAGCAAUAUUACGCAGC
- self-splicing fitness (ln) (30 °C): -3.14 ± 0.4
- self-splicing fitness (ln) (37 °C): -2.62 ± 0.28

Sequence: GCUAAGCAAUAUUACGCCGC
- self-splicing fitness (ln) (30 °C): -2.72 ± 0.48

Sequence: GCUAAGCAAUAUUACGCCUC
- self-splicing fitness (ln) (30 °C): -1.89 ± 0.16
- self-splicing fitness (ln) (37 °C): -0.286 ± 0.22

Sequence: GCUAAGCAAUAUUACGCGGU
- self-splicing fitness (ln) (30 °C): -2.97 ± 0.27
- self-splicing fitness (ln) (37 °C): -2.72 ± 0.25

Sequence: GCUAAGCAAUAUUACGCGUC
- self-splicing fitness (ln) (30 °C): -0.276 ± 0.14
- self-splicing fitness (ln) (37 °C): -2.47 ± 0.19

Sequence: GCUAAGCAAUAUUACGGCCC
- self-splicing fitness (ln) (30 °C): -1.78 ± 0.18
- self-splicing fitness (ln) (37 °C): -0.371 ± 0.14

Sequence: GCUAAGCAAUAUUACGGCCG
- self-splicing fitness (ln) (30 °C): -3.06 ± 0.25
- self-splicing fitness (ln) (37 °C): -2.9 ± 0.47

Sequence: GCUAAGCAAUAUUACGGGAA
- self-splicing fitness (ln) (30 °C): -1.56 ± 0.12
- self-splicing fitness (ln) (37 °C): -1.16 ± 0.12

Sequence: GCUAAGCAAUAUUACGGGAU
- self-splicing fitness (ln) (30 °C): -2.86 ± 0.1
- self-splicing fitness (ln) (37 °C): -0.821 ± 0.081

Sequence: GCUAAGCAAUAUUACGGGGA
- self-splicing fitness (ln) (30 °C): -1.74 ± 0.17
- self-splicing fitness (ln) (37 °C): -1.55 ± 0.21

Sequence: GCUAAGCAAUAUUACGGUUC
- self-splicing fitness (ln) (30 °C): -1.72 ± 0.097
- self-splicing fitness (ln) (37 °C): -0.788 ± 0.11

Sequence: GCUAAGCAAUAUUACGGUUG
- self-splicing fitness (ln) (30 °C): -2.99 ± 0.092
- self-splicing fitness (ln) (37 °C): -2.42 ± 0.098

Sequence: GCUAAGCAAUAUUACGUAAA
- self-splicing fitness (ln) (30 °C): -0.877 ± 0.068
- self-splicing fitness (ln) (37 °C): -0.32 ± 0.091
